B1: TPR t1 (parent)
chain: GACCAAUCUGCCCUCAGAGCUCGAGAACAUCUUCGGAUGCAGAGGAGGCAGGCUUCGGUGGCGCGAUAGCGCCAACGUCCUCAACCUCCAAUGCAUCCCACCACAUGAUGAUGCCUGAAGAGCCUUGGUUUUUUG

Variants of: B1
Assay: polymerase ribozyme fitness, log enrichment relative to wild type (log ratio); higher = more active; in vitro selection for triplet polymerase activity
How it was run: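 Frozen incubation at −7 °C formed the core of a single, triplicate in vitro selection round applied to PCR-built, transcribed mutant libraries of each subunit of a heterodimeric triplet polymerase ribozyme. Extended constructs were gel-excised, captured with streptavidin beads and amplified by RT-PCR, and input and output libraries were Illumina-sequenced with a filter of ≥10 input reads and ≥1 read per output. Fitness is the logarithm of genotype enrichment relative to wild-type enrichment, with inverse-variance-weighted replicate averaging, and the logarithm is base 2.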

Row | Variant | polymerase ribozyme fitness (log ratio)
1 | C3U U54A A91U | -2.48
2 | C3U U55C C89U C115U | -3.75
3 | C3U U59C A111G G120U | -2.84
4 | C3U U78C U87G | -0.313
5 | C3U U112A | 0.197
6 | C4A A6C A46C C49A C70A C72G A84C A119U C123A U126G | -6.91
7 | C4A A16G U54G C101A U112A A119G | -0.726
8 | C4A A16U C72U A95C | -3.63
9 | C4A A18C C49U C85U C114G | -5.25
10 | C4A A18G C89A A100C G113A C124U | -4.48
11 | C4A A24G G48U G60A | -4.54
12 | C4A A29C G69U G110A G120A G127A | -4.61
13 | C4A A29G C31G A105G A108U A111C C115G C123A | -6.34
14 | C4A A29U G48U G71U U109G | -5.09
15 | C4A A37U C72U U78A | -1.52
16 | C4A A41C C64U | -1.54
17 | C4A A41U G58C G117A | -7.2
18 | C4A A46C C64U C114A C124A U131G | -3.27
19 | C4A A91U | -3.65
20 | C4A A95C C123G | -1.42
21 | C4A A119U | -1.66
22 | C4A C8A C13U G63U A84C | -2.38
23 | C4A C11G G60A C114G | -5.08
24 | C4A C11U G69U C97G | -3.61

Row | Variant | polymerase ribozyme fitness (log ratio)
25 | C4A C13A U54G C56A G77A | -4.73
26 | C4A C13G C49G C88G | -4.57
27 | C4A C13U | -1.41
28 | C4A C13U C101G | -4.23
29 | C4A C13U G63C U81A | -2.72
30 | C4A C15G | -4.24
31 | C4A C15G G47U C64U C115G A119U G120U G135U | -7.19
32 | C4A C15U G51A C82G C123U | -5.31
33 | C4A C15U G61A U87A | -2.75
34 | C4A C40U C102G C115A | -6.67
35 | C4A C40U G61U | -1.92
36 | C4A C56A C70A C72U U125G | -4.17
37 | C4A C70G | -3.6
38 | C4A C70G G113A U116A | -6.73
39 | C4A C70U | -1.71
40 | C4A C73G | -2.98
41 | C4A C85A | -2.93
42 | C4A C98U | -2.2
43 | C4A C99U | -4.5
44 | C4A C123A | -0.283
45 | C4A C124U | -1.17
46 | C4A G36C G65U C104U A119G A121U G128U U129A | -6.35
47 | C4A G42U G69U | -1.62
48 | C4A G48U G61C C89U A121G | -1.77

Row | Variant | polymerase ribozyme fitness (log ratio)
49 | C4A G52C | -2.41
50 | C4A G60A C102U A118U U132C | -4.76
51 | C4A G61A | -1.34
52 | C4A G61C A84U | -4.45
53 | C4A G61U | -1.15
54 | C4A G61U A105U | -4.13
55 | C4A G69A | -4.36
56 | C4A G113U | -3.74
57 | C4A G120C | -0.842
58 | C4A U7A G61A | -0.369
59 | C4A U7G G69C A90C U112C C123U | -3.35
60 | C4A U9A C64U U96C | -0.963
61 | C4A U9G | -0.689
62 | C4A U21G G44U G63U C82A C124G | -4.8
63 | C4A U112A | 0.26
64 | C4A U130G | -1.85
65 | C4G A5G C11U C73G C89A G113U C114U G122U U129G | -5.02
66 | C4G A5U | -2.76
67 | C4G A5U U55C G113A | -4.56
68 | C4G A16G C97U C123U G127A | -4.37
69 | C4G A18C C22U C72G G93U U109C G117C | -5.69
70 | C4G A18U | -4.14
71 | C4G A37G C49G G113C | -4.25
72 | C4G A37U A90C | -2.66

Row | Variant | polymerase ribozyme fitness (log ratio)
73 | C4G A41C G77A A95C | -3.4
74 | C4G A111C | -0.384
75 | C4G C8G A26G G120U | -0.664
76 | C4G C8G C11A U14G G69C C124U | -2.77
77 | C4G C8G C40G C124U | 0.299
78 | C4G C8G C72U A121G | 1.81
79 | C4G C8U C12A G42A G71A U106A U112G | -4.39
80 | C4G C11G C40A G60A C101G U106C | -4.19
81 | C4G C12A | -1.87
82 | C4G C12A C15A C73U C94A C99U G110C | -7.24
83 | C4G C12G | -1.12
84 | C4G C12G G61C C79A C82A C124U | -3.71
85 | C4G C12U C56A C70U A111C U126A | -3.03
86 | C4G C12U G60U C89G A111U | -5.57
87 | C4G C15A U54A A121C | -2.91
88 | C4G C20U G48C G63A C123G | -2.25
89 | C4G C34A G69U C97U C114A G122U C123A | -3.31
90 | C4G C40G | -2.02
91 | C4G C40U | -1.78
92 | C4G C49A | -2.14
93 | C4G C49G G60C A119U U133A | -3.77
94 | C4G C56A | -2.34
95 | C4G C64U C115A C123A | -3.09
96 | C4G C64U U106C C115G | -5.73

Row | Variant | polymerase ribozyme fitness (log ratio)
97 | C4G C72A C86U U112C G122A G135C | -0.311
98 | C4G C79U C104U | -1.62
99 | C4G C80U A83C C88U | -5.05
100 | C4G C88A | -2.51
101 | C4G C114U | -3.57
102 | C4G G42A | -3.06
103 | C4G G44U C88A C124A | -1.23
104 | C4G G44U G61U A66U C72G C82A C85A A111C | -6.11
105 | C4G G44U U96A A100U | -3.73
106 | C4G G57A G58C A95C G113U U125C | -6.6
107 | C4G G61C C82G C123U | -3.08
108 | C4G G61C G69U U112A | -1.95
109 | C4G G61U G93A | -2.57
110 | C4G G63A U106G A118G C123G | -2.77
111 | C4G G110U | -2.64
112 | C4G U7C C34U U38G U54G G69U U109A A111G | -5.81
113 | C4G U7C C56U G60U C101A | -6.75
114 | C4G U9A C62G U92A A95G U112C G113A | -5.53
115 | C4G U9A U78C U87G C104A C123U | -2.05
116 | C4G U9C C70U C89U U96A | -3.09
117 | C4G U9C U112C G117A | -1.01
118 | C4G U9G G61U G120C | 0.941
119 | C4G U14A C73G G120A | -3.16
120 | C4G U21A A24G A46U U125A | -4.02

Row | Variant | polymerase ribozyme fitness (log ratio)
121 | C4G U21C G45A U78A C124G | 0.886
122 | C4G U96A G127U | -1.19
123 | C4U A5C C12G C62U C89U C123G | -1.41
124 | C4U A16G G60C C79A | -4.11
125 | C4U A18C C53A C88G | -3.41
126 | C4U A18G | -3.62
127 | C4U A37G A50C C82A | -1.39
128 | C4U A41U | -1.8
129 | C4U A43U C56G C89U U112C | -0.836
130 | C4U A50G G93A G117U A118U | -4.55
131 | C4U A66G C124G | 0.544
132 | C4U A74U U92G | -3.59
133 | C4U C8G G36U U38A G44U C124A | -5.08
134 | C4U C11G | 0.407
135 | C4U C11G C49U G51A C72U C80U C94G | -1.9
136 | C4U C11G G60A C72G C82U C97U A108G G120A | -3.71
137 | C4U C12G C15G G117C | 0.829
138 | C4U C12G G17C G48A U54C C104A C115G | -2.54
139 | C4U C12U C13U G69C C124G | -0.455
140 | C4U C12U G61A | -0.369
141 | C4U C13A A26U U55G C62U | -4.16
142 | C4U C13G C56G C72U C73A | -5.32
143 | C4U C13U U38A C53A | -1.25
144 | C4U C34A A90C C114G G135A | -5.15

Row | Variant | polymerase ribozyme fitness (log ratio)
145 | C4U C34A G52C C99A C102U U106C | -6
146 | C4U C49U | -0.875
147 | C4U C49U G52A | -3.12
148 | C4U C53U C82A U129C | -2.91
149 | C4U C70A G128C | -4.51
150 | C4U C70U C80A | -5.32
151 | C4U C76G C123A | -0.394
152 | C4U C97A | -5.21
153 | C4U G10C C20A G48U A119G | -3.45
154 | C4U G17U G48A U54G G61A G77U U130C | -3.69
155 | C4U G19A C56G U106A C123G | -3.72
156 | C4U G39U G71U G117A U133A | -3.6
157 | C4U G44C C64U A119U U133A | -2.68
158 | C4U G44U C53U C86G | -3.52
159 | C4U G44U G61A C80G C89G C114U U131G | -7.14
160 | C4U G47A C56U C73U C101U A119G G120U G127A | -0.428
161 | C4U G47A G107U C124U | -3.15
162 | C4U G48C G61U C98U U112C | -0.785
163 | C4U G48U G93A | -2.39
164 | C4U G48U U92G G113C | -3.72
165 | C4U G51C | -2.89
166 | C4U G51U A121C | -1.96
167 | C4U G52A C114A | -2.66

Source: the RNAGym collection of RNA variant scans (doi:10.1073/pnas.2313332121)
